PMC7205312
Changes are numbered by the printed parent chain. In names and notes the source's numbering stands.

Assays:
Experiment in all cases: co-IP (IP anti-Myc beads, IB anti-HA), band intensity by ImageJ
Conditions in all cases: chain shown with the change; NB-ARC-HA co-expressed with NB-ARC-Myc; parent: 1.00
[1] = target: T1, Tm-2^2 NB-ARC (D481V, L233A), Q71BG9
T1 chain: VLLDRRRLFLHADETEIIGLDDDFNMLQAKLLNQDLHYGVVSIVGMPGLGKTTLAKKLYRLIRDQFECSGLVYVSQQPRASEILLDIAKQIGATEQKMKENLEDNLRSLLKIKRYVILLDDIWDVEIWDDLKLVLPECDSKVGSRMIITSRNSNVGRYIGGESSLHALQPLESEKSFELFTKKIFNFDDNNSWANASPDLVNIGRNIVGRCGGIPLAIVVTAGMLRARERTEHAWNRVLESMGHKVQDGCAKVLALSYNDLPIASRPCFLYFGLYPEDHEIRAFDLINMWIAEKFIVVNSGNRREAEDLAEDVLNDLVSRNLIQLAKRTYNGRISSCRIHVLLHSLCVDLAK

[2] = target: T2, Tm-2^2 NB-ARC (D481V, L246A), Q71BG9
T2 chain: T1 chain with A93L, L106A

[3] = target: T3, Tm-2^2 NB-ARC (D481V, L242A), Q71BG9
T3 chain: T1 chain with A93L, L102A

B1: Tm-2^2 NB-ARC (D481V), Q71BG9 L233A; D481V (protein)
chain: T1 chain
- ratio to parent [1]: 0.64

B2: Tm-2^2 NB-ARC (D481V), Q71BG9 L246A; D481V (protein)
chain: T1 chain with A93L, L106A
- ratio to parent [2]: 0.45

B3: Tm-2^2 NB-ARC (D481V), Q71BG9 L242A; D481V (protein)
chain: T1 chain with A93L, L102A
- ratio to parent [3]: 0.62
